Paper PMC5758917 (Nucleic Acids Research, 2017)

Target: T1, GST-E1 (HPV 11 E1 fused to GST) (human papillomavirus type 11, UniProt P04014 1-649)
T1 sequence: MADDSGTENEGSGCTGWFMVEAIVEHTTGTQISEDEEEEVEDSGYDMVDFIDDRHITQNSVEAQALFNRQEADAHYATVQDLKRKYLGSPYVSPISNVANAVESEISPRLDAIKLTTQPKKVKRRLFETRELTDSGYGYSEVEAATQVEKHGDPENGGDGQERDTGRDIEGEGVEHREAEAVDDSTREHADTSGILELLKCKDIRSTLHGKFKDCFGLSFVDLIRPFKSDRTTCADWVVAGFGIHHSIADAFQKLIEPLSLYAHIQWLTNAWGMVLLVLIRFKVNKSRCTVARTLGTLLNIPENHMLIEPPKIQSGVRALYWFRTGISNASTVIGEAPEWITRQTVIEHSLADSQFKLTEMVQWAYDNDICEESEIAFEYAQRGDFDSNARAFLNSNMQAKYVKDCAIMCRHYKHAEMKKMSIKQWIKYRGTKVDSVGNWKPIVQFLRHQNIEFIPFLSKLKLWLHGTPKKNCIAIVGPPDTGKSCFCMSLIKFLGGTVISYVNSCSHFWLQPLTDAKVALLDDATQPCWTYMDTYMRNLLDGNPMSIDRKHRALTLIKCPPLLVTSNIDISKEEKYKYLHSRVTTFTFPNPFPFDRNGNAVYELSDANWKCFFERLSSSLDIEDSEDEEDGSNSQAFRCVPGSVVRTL
Assay: far-Western, overlay or dot blot

B1: p50 subunit of pol δ (natural protein)
chain: not shown
  binding result: binds
